Reference: patent publication US20030176382

Biological target: T1, synthetic peptide substrate ALERTFLSFPT
T1 chain: ALERTFLSFPT

B1: aspartyl proteinase purified from the adult hookworm Necator americanus (protein)
chain: GVYKIPLKRITPPMIKMLRAGTWETYVEGMRKRQLQLLKEHKVHIQDVLGYANMEYLGEITIGTPQQKFLVVLDTGSSNLWVPDDSCYKEKRPDRCLVSNCDAGLVCQVFCPDPKCCEHTREFKQVNACKDKHRFDQKNSNTYVKTNKTWAIAYGTGDARGFFGRDTVRLGAEGKDQLVINDTWFGQAEHIAEFFSNTFLDGILGLAFQELSEGGVAPPIIRAIDLGLLDQPIFTVYFENVGDKEGVYGGVFTWGGLDPDHCEDEVTYEQLTEATYWQFRLKGVSSKNFSSTAGWEAISDTGTSLNGAPRGILRSIARQYNGQYVASQGLYVVDCSKNVTVDVTIGDRNYTMTAKNLVLEIQADICIMAFFEMDMFIGPAWILGDPFIREYCNIHDIEKKRIGFAAVKH
substrate specificity assay (cleavage of a synthetic peptide substrate): the proteinase cleaved the synthetic peptide substrate ALERTFLSFPT (SEQ ID NO. 7)
